This is an account of results in patent publication US20160237156A1.

The term IC50 denotes the point on the concentration scale where inhibition reaches its midpoint. The low end stands for greater potency in that assay, the high end for weaker potency in that assay. Usually Ki stands for a dissociation constant, usually derived from enzyme kinetics or from competition with a known ligand. Read a low Ki as tighter binding.

One test deals with CXCR4 (human) (UniProt P61073). Nature of the test: cell-based or functional assay.
In test [1] the target is SNAP-tag-CXCR4 (Tag-lite labeled CXCR4 cells, Cisbio Bioassays) (UniProt P61073). Nature of the test: Tag-lite HTRF competition with 50 nM fluorescent SDF-1 on Tag-lite labeled CXCR4 cells. (Time-resolved FRET reads energy transfer from a long-lived donor to a nearby acceptor.)
Test [2] shares this target. Put plainly: Tag-lite HTRF competition with 50 nM fluorescent SDF-1, Cheng-Prusoff.

Chain of SNAP-tag-CXCR4 (Tag-lite labeled CXCR4 cells, Cisbio Bioassays) (P61073 whole entry): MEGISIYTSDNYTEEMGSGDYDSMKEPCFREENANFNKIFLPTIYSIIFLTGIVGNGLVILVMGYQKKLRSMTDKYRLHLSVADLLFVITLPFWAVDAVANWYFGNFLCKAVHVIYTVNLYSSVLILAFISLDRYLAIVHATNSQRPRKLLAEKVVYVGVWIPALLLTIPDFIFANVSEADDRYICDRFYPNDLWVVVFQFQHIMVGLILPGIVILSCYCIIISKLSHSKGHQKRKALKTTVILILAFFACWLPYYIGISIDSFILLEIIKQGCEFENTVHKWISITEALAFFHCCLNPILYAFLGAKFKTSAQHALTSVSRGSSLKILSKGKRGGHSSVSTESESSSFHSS
Chain of CXCR4 (human) (P61073 whole entry): as above

“mouse anti-human CXCR4 monoclonal antibody (Clone 12G5, R&D system)” had an inhibition of SDF-1 induced migration of Ramos cells, EC50 with CXCR4 (human) of 2.1 nM. In addition, in test [1], the IC50 was 4.4 nM. The substance also returned a Ki in test [2] of 0.97 nM.
